Results published in PMC13462928 (2026).

Target: NUDT5 (Homo sapiens, UniProt Q9UKK9, dNUDT5 ternary complex, engineered CRBNmidi)
Experiment: proximity binding assay

Kd: 340 pM
B1: CRBNmidi (protein)
chain: MAGEGDQQDAAHNMGNHLPLLPAESEEEDEMEVEDQDSKEAKKPNIINFDTSLPTSHTYLGADMEEFHGRTLHDDDSCQVIPVLPQVMMILIPGQTLPLQLFHPQEVSMVRNLIQKDRTFAVLAYSNVQEREAQFGTTAEIYAYREEQDFGIEIVKVKAIGRQRFKVLELRTQSDGIQQAKVQILPECVLPSTMSAVQLESLNKCQIFPSKPVSREDQCSYKWWQKYQKRKFHCANLTSWPRWLYSLYDAETLMDRIKKQLREWDENLKDDSLPSNPIDFSYRVAACLPIDDVLRIQLLKIGSAIQRLRCELDIMNKCTSLCCKQCQETEITTKNEIFSLSLCGPMAAYVNPHGYVHETLTVYKACNLNLIGRPSTEHSWFPGYAWTVAQCKICASHIGWKFTATKKDMSPQKFWGLTRSALLPTIPDTEDEISPDKVILCL
